Source: patent US20240116985A1, “STAPLED PEPTIDES AND METHODS THEREOF” (priority 2020, published 2024)
Starred links: 1 amine or outer side, 2 acyl side, 3 side chain; linkers in the order of their positions; H or OH if unused. Positions of bridges follow the written chain, without caps; N, C: chain ends. Non-standard residues stand in square brackets, D forms with d. Primed or numbered codes have the meaning given here. B5(15) = 2-amino-2-(pent-4-en-1-yl)hept-6-enoic acid (2,2-bis(4-pentenyl)glycine), stitching residue bearing two staples, C=CCCCC(CCCC=C)(N[*:1])C(=O)[*:2]; PyrS2″ = (S)-3-amino-1-((pent-4-en-1-yloxy)carbonyl)pyrrolidine-3-carboxylic acid (stapling residue), C=CCCCOC(=O)N1CC[C@@](N[*:1])(C(=O)[*:2])C1; B5(18) = 2,2-bis(4-pentenyl)glycine (2-amino-2-(pent-4-en-1-yl)hept-6-enoic acid), stitching residue, C=CCCCC(CCCC=C)(N[*:1])C(=O)[*:2]; B5(23) = 2-amino-2-(pent-4-en-1-yl)hept-6-enoic acid (2,2-bis(4-pentenyl)glycine), stitching residue, C=CCCCC(CCCC=C)(N[*:1])C(=O)[*:2]; B5(4) = 2,2-bis(4-pentenyl)glycine = 2-amino-2-(pent-4-en-1-yl)hept-6-enoic acid (stitching residue), C=CCCCC(CCCC=C)(N[*:1])C(=O)[*:2]; B5(5) = 2,2-bis(4-pentenyl)glycine, 2-amino-2-(pent-4-en-1-yl)hept-6-enoic acid (stitching residue), C=CCCCC(CCCC=C)(N[*:1])C(=O)[*:2]; TfeGA = (S)-2-amino-3-((carboxymethyl)(2,2,2-trifluoroethyl)amino)propanoic acid, O=C([C@H](CN(CC(=O)[*:3])CC(F)(F)F)N[*:1])[*:2]; PyrS2 = (S)-3-amino-1-((pent-4-en-1-yloxy)carbonyl)pyrrolidine-3-carboxylic acid, C=CCCCOC(=O)N1CC[C@@](N[*:1])(C(=O)[*:2])C1; B5(25) = 2-amino-2-(pent-4-en-1-yl)hept-6-enoic acid (stitching residue), C=CCCCC(CCCC=C)(N[*:1])C(=O)[*:2]; EtGA = (S)-2-amino-3-((carboxymethyl)(ethyl)amino)propanoic acid, CCN(CC(=O)[*:3])C[C@H](N[*:1])C(=O)[*:2]; B5(3) = 2,2-bis(4-pentenyl)glycine (stitching residue), C=CCCCC(CCCC=C)(N[*:1])C(=O)[*:2]; Phe(2-Cl) = N[C@@H](Cc1ccccc1Cl)C(=O)O; Bta = N[C@@H](Cc1csc2ccccc12)C(=O)O; αAllylPro = C=CC[C@@]1(C(=O)O)CCCN1; tBuAla = CC(C)(C)C[C@H](N)C(=O)O; 2Thi = N[C@@H](Cc1cccs1)C(=O)O; 3Thi = N[C@@H](Cc1ccsc1)C(=O)O; S8 = C=CCCCCCC[C@](C)(N)C(=O)O; hLeu = CC(C)CC[C@H](N)C(=O)O; hSer = N[C@@H](CCO)C(=O)O

B1: I-485 (peptide)
peptide: Ac-[αAllylPro]DI[B5(4)]DEAA[2Thi]Q[S8]F[Bta]Q-NH2
modifications: staple 1-4, 4-11
B2: I-975 (peptide)
peptide: Ac-[αAllylPro]D[tBuAla][B5(4)]D[EtGA]AAFS[PyrS2″][3Thi][Bta]S-NH2
modifications: staple 1-4, 4-11; also: later eluting HPLC staple isomer
B3: I-974 (peptide)
peptide: Ac-[αAllylPro]D[tBuAla][B5(4)]D[EtGA]AAFS[PyrS2″][3Thi][Bta]S-NH2
modifications: staple 1-4, 4-11; also: earlier eluting HPLC staple isomer
B4: I-968 (peptide)
peptide: Ac-[αAllylPro]D[tBuAla][B5(25)]D[EtGA]AAFT[PyrS2″][3Thi][Bta]Q-NH2
modifications: staple 1-4, 4-11; also: earlier-eluting HPLC staple isomer
B5: I-967 (peptide)
peptide: Ac-[αAllylPro]D[tBuAla][B5(25)]D[EtGA]AAFS[PyrS2″][3Thi][Bta]Q-NH2
modifications: staple 1-4, 4-11; not fully specified; printed as Ac-PL3-Asp-Npg-B5-Asp-EtGA-Ala-Ala-Phe-Ser-PyrS2-3Thi-BztA-Gln-NH2
B6: I-966 (peptide)
peptide: Ac-[αAllylPro]D[tBuAla][B5(25)]D[EtGA]AAFS[PyrS2″][3Thi][Bta]Q-NH2
modifications: staple 1-4, 4-11; also: earlier-eluting HPLC staple isomer
B7: I-969 (peptide)
peptide: Ac-[αAllylPro]D[tBuAla][B5(25)]D[EtGA]AAFT[PyrS2″][3Thi][Bta]Q-NH2
modifications: staple 1-4, 4-11; not fully specified; printed as Ac-PL3-Asp-Npg-B5-Asp-EtGA-Ala-Ala-Phe-Thr-PyrS2-3Thi-BztA-Gln-NH2
B8: I-1555 (peptide)
peptide: Ac-[αAllylPro]D[tBuAla][B5(23)]NNAAFN[PyrS2][3Thi][Bta]Q-NH2
modifications: staple 1-4, 4-11
B9: I-1001 (peptide)
peptide: Ac-[αAllylPro]D[tBuAla][B5(3)][3Thi][TfeGA]AAFN[PyrS2″]D[Bta]Q-NH2
modifications: staple 1-4, 4-11
B10: I-1018 (peptide)
peptide: Ac-[αAllylPro]D[tBuAla][B5(5)]DNAAFS[PyrS2″][Phe(2-Cl)][Bta]Q-NH2
modifications: staple 1-4, 4-11
B11: I-1538 (peptide)
peptide: Ac-[αAllylPro]D[hLeu][B5(15)]DEAAF[hSer][S8]F[Bta]Q-NH2
modifications: staple 1-4, 4-11; not fully specified; printed as Ac-PL3-Asp-Hleu-B5-Asp-Glu-Ala-Ala-Phe-Hse-S8-Phe-BztA-Gln-NH2
B12: I-1014 (peptide)
peptide: Ac-[αAllylPro]D[tBuAla][B5(5)]DNAAFT[PyrS2″][Phe(2-Cl)][Bta]Q-NH2
modifications: staple 1-4, 4-11
B13: I-1006 (peptide)
peptide: Ac-[αAllylPro]D[tBuAla][B5(5)]D[TfeGA]AKFN[PyrS2″][Phe(2-Cl)][Bta]Q-NH2
modifications: staple 1-4, 4-11
B14: I-1005 (peptide)
peptide: Ac-[αAllylPro]D[tBuAla][B5(5)]D[TfeGA]AIFN[PyrS2″][Phe(2-Cl)][Bta]Q-NH2
modifications: staple 1-4, 4-11
B15: I-1013 (peptide)
peptide: Ac-[αAllylPro]D[tBuAla][B5(5)]DDAAFT[PyrS2″][Phe(2-Cl)][Bta]Q-NH2
modifications: staple 1-4, 4-11

These binders were tested against full-length beta-Catenin (Uniprot ID P35222) (Homo sapiens (Human)) (UniProt P35222) (assay: cell-based or functional assay).
Target sequence in this assay (P35222 2-781 limits assumed): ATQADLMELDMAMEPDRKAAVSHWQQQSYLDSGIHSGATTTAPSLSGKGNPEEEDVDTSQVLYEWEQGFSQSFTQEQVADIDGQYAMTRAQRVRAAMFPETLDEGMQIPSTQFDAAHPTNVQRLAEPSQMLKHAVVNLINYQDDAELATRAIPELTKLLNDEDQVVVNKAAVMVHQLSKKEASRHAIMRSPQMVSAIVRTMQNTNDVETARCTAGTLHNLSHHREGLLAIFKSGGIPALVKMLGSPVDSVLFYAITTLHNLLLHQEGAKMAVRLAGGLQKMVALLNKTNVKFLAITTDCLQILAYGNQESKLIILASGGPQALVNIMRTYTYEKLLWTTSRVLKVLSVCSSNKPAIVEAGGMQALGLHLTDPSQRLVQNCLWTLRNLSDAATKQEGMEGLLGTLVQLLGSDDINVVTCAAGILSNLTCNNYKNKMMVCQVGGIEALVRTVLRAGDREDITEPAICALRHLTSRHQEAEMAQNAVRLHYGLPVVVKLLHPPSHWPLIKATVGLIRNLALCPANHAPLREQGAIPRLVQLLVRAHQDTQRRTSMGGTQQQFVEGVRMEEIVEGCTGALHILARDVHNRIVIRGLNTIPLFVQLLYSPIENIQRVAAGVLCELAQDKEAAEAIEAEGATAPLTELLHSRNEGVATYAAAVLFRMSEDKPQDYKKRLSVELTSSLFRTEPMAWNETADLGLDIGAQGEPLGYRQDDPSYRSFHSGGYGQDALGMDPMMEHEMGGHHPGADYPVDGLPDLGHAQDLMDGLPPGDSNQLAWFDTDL

Binder | NanoBRET Abs IC50 [nM]
B1 | 11300

What follows are binders tested against full-length beta-Catenin (Uniprot ID P35222) (Homo sapiens (Human)) (UniProt P35222) (assay: fluorescence polarization competition vs 5FAM-TCF4(10-53) on full-length beta-catenin).
Target sequence in this assay (P35222 2-781 limits assumed): as above

Binder | IC50 [nM]
B2 | 2240
B3 | 1780
B4 | 2980
B5 | 1740
B6 | 2020
B7 | 2320

These binders were tested against full-length beta-Catenin (Uniprot ID P35222) (Homo sapiens (Human)) (UniProt P35222) (assay: fluorescence polarization competition; displaces 5FAM-TCF4(10-53) from full-length beta-catenin).
Target sequence in this assay (P35222 2-781 limits assumed): as above

Binder | IC50 [nM] | EC50 [nM]
B8 | 180 | 
B9 |  | 5530
B10 |  | 26
B11 | 21 | 
B12 |  | 19
B13 |  | 5
B14 |  | 42
B15 |  | 8

What follows are binders tested against full-length beta-Catenin (Uniprot ID P35222) (Homo sapiens (Human)) (UniProt P35222) (assay: fluorescence polarization competition; 10 nM full-length beta-catenin + 10 nM 5FAM-TCF4(10-53) probe).
Target sequence in this assay (P35222 whole entry): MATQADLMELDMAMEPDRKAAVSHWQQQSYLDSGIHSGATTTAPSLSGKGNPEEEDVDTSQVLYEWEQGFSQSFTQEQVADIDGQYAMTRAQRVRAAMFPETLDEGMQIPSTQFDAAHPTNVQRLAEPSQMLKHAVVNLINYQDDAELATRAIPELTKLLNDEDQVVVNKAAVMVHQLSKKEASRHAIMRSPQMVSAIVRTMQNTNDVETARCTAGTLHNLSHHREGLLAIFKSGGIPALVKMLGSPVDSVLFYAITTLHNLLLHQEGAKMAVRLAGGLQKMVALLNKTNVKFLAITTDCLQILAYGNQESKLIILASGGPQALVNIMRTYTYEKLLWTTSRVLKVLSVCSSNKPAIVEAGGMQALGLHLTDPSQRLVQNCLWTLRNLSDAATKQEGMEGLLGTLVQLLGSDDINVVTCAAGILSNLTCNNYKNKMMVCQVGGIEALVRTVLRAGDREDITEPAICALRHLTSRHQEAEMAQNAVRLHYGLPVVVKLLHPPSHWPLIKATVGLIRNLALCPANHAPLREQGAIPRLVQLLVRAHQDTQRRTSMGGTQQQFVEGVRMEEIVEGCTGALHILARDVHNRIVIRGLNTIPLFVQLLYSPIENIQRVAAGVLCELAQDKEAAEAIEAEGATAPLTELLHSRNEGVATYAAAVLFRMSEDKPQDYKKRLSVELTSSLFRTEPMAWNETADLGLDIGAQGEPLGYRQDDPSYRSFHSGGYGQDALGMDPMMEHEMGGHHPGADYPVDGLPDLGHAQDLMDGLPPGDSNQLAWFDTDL

Binder | IC50 [nM]
B9 | 7220
B10 | 26
B12 | 19
B13 | 5
B14 | 42
B15 | 8

Each binder was assayed against full-length beta-Catenin (Uniprot ID P35222) (Homo sapiens (Human)) (UniProt P35222) (assay: fluorescence polarization competition; displacement of 5FAM-TCF4(10-53) from full-length beta-catenin).
Target sequence in this assay (P35222 whole entry): as above

Binder | EC50 [nM]
B1 | 34

These binders were tested against full-length beta-Catenin (Uniprot ID P35222) (Homo sapiens (Human)) (UniProt P35222) (assay: fluorescence polarization competition; full-length beta-catenin with 5FAM-TCF4(10-53) probe as competitor).
Target sequence in this assay (P35222 2-781 limits assumed): as the sequence (P35222 2-781 limits assumed) above

Binder | IC50 [nM]
B1 | 34

The binders below were run against full-length beta-Catenin (Uniprot ID P35222) (Homo sapiens (Human)) (UniProt P35222) (assay: fluorescence polarization competition; full-length beta-catenin with 5FAM-labeled TCF4 (10-53) probe as competitor).
Target sequence in this assay (P35222 whole entry): as the sequence (P35222 whole entry) above

Binder | EC50 [nM]
B2 | 1710
B3 | 1780
B4 | 2980
B5 | 1740
B6 | 2020
B7 | 2320
